According to patent EP3388527:

Biological target: T1, GP-1 (human, UniProt Q14242)
T1 chain: QATEYEYLDYDFLPETEPP
Experiment: SPR

- binding result: no binding
B1: SelK1 (antibody, V domains shown)
VH: QVQLQQSGPGLVKPSQTLSLTCAISGDSVSSNIAAWHWIRLSPSRGLEWLGRTYYRRSKWNYDYALSVKSRININPDTSKNLFSLQLNSVTPEDTAVYYCTRGGGRAHSAWGQGTLVTVSS
VL: EIVLTQSPGTLSVSPGERATLSCRASQSVSRSHLAWYQQKPGQAPRLLIFGASSRATGIPDRFSGSGSGTDFTLTISRLEPEDFAVYYCQQYGRPGVTFGQGTKVEIK
